Patent US20250084169A1 (published 2025)

Legend:
Assay in all cases: SPR
[1] = target: T1, recombinant human full-length CD20 (human, UniProt P11836 1-297)
T1 chain: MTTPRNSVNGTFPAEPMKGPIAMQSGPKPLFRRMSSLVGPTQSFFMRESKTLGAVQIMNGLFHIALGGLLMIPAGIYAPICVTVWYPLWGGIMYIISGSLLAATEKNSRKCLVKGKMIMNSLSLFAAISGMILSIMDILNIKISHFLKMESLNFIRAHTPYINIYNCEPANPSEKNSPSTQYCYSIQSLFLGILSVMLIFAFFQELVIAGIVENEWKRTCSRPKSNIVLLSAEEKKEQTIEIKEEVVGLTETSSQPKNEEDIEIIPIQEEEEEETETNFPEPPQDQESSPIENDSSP

[2] = target: complement component C1q (UniProt P02745 23-245; P02746 28-253; P02747 29-245)
Sequence of complement component C1q (P02745 23-245, chain 1 of 3): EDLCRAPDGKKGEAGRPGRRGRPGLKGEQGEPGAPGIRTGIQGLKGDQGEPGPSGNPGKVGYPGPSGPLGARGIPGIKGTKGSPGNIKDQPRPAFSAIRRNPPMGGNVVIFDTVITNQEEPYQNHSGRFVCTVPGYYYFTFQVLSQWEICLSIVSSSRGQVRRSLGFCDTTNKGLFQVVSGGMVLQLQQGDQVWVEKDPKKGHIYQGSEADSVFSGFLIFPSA
Sequence of complement component C1q (P02746 28-253, chain 2 of 3): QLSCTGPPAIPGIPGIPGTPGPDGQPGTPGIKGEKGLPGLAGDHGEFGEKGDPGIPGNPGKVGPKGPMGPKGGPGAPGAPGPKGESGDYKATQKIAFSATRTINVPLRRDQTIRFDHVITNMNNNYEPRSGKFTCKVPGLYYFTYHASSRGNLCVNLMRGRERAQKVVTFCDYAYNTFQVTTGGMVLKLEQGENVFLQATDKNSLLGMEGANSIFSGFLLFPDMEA
Sequence of complement component C1q (P02747 29-245, chain 3 of 3): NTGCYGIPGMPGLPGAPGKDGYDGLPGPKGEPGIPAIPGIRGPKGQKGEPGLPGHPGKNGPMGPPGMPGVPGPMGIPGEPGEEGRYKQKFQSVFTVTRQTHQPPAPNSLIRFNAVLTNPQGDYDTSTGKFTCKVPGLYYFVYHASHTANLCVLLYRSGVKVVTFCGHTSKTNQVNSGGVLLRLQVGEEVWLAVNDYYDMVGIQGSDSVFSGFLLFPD

[3] = target: T2, recombinant human Fc gamma RIIa (CD32a) 131R (human, UniProt P12318 36-218)
T2 chain: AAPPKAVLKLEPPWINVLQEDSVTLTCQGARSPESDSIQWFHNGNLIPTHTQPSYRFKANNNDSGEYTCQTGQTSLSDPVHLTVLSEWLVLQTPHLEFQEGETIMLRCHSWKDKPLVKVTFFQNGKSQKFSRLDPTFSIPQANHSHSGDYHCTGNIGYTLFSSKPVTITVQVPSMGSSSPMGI

[4] = target: recombinant human Fc gamma RIIIa (CD16a) 158V (human, UniProt P08637 17-208)
Sequence of recombinant human Fc gamma RIIIa (CD16a) 158V (P08637 17-208 F176V): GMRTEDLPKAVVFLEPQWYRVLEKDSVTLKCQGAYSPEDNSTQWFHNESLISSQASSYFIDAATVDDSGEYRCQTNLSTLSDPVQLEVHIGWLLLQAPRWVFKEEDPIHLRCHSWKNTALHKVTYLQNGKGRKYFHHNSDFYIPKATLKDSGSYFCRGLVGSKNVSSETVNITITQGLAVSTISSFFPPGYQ

[5] = target: T3, recombinant human CD19 (human, UniProt P15391 20-291)
T3 chain: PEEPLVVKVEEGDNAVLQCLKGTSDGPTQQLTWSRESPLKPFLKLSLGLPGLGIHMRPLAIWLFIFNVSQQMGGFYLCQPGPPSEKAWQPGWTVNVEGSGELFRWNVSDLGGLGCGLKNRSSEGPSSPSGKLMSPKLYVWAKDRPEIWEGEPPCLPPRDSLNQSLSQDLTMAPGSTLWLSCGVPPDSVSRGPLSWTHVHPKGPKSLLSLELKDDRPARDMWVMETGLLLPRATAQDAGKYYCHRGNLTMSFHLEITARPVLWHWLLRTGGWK

[6] = target: T4, recombinant human Fc gamma RI (CD64) (human, UniProt P12314 16-288)
T4 chain: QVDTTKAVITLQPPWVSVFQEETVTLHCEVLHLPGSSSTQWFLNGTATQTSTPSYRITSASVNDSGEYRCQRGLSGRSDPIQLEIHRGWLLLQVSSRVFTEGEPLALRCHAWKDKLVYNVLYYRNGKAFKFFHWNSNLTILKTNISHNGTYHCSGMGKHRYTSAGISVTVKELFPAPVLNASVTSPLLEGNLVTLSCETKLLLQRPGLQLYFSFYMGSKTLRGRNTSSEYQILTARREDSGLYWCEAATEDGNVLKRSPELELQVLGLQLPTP

| Binder | Kd [1] [nM] | Kd [2] [nM] | Kd [3] [nM] | Kd [4] [nM] | Kd [5] [nM] | Kd [6] [nM] |
| --- | --- | --- | --- | --- | --- | --- |
| Rituximab (antibody) VH: not shown VL: QIVLSQSPAILSASPGEKVTMTCRASSSVSYIHWFQQKPGSSPKPWIYATSNLASGVPVRFSGSGSGTSYSLTISRVEAEDAATYYCQQWTSNPPTFGGGTKLEIKRTVAAPSVFIFPPSDEQLKSGTASVVCLLNNFYPREAKVQWKVDNALQSGNSQESVTEQDSKDSTYSLSSTLTLSKADYEKHKVYACEVTHQGLSSPVTKSFNRGEC | 0.596 | – | – | – | – | – |
| HB1905 (bispecific antibody) light 1: DIQMTQTTSSLSASLGDRVTISCRASQDISKYLNWYQEKPDGTVKLLIYHTSRLHSGVPSRFSGSGSGTDYSLTISNLEQEDIATYFCQQGNTLPYTFGGGTKLEIKRTVAAPSVFIFPPSDEQLKSGTASVKCLLNNFYPREAKVQWKVDNALQSGNSQESVTEQDSKDSTYSLSSTLTLSKADYEKHKVYACEVTHQGLSSPVTKSFNRGEC heavy 1: EVKLQESGPGLVAPSQSLSVTCTVSGVSLPDYGVSWIRKPPRKGLEWLGVIWGSETTYYNSALKSRLTIIKDNSKSQVFLKMSSLQTDDTAIYYCAKHYYYGGSYAMDYWGQGTSVTVSSASTKGPSVFPLAPSSKSTSGGTAALGCLVKDYFPEPVTVSWNSGALTSGVHTFPAVLQSSGLYSLESVVTVPSSSLGTQTYICNVNHKPSNTKVDKKVEPKSCTDWSPYADQSIKVRISLKSALGDKAYEWNDNEMYLFRSSVAYAMRQYFLKVKNQMILFGEEDVRVANLKPRISFNFFVTAPKNVSDIIPRTEVEKAIRMSRSRINDAFRLNDNSLEFLGIQPTLGPPNQPPVSTSTSPTRSMAPGAVHLPQPVSTRDKTHTCPPCPAPELLGGPSVFLFPPKPKDTLMISRTPEVTCVVVDVSHEDPEVKFNWYVDGVEVHNAKTKPREEQYNSTYRVVSVLTVLHQDWLNGKEYKCKVSNKALPAPIEKTISKAKGQPREPQVCTLPPSRDELTKNQVSLSCAVKGFYPSDIAVEWESNGQPENNYKTTPPVLDSDGSFFLVSKLTVDKSRWQQGNVFSCSVMHEALHNRFTQKSLSLSPG light 2: QVQLQQPGAELVKPGASVKMSCKASGYTFTSYNMHWVKKTPGRGLEWIGAIYPGNGDTSYNQKFKGKATLTADKSSSTAYMQLSSLTSEDSAVYYCARSTYYGGDWYFNVWGAGTLVTVSSASVAAPSVFIFPPSDEQLKSGTASVECLLNNFYPREAKVQWKVDNALQSGNSQESVTEQDSKDSTYSLSSTLTLSKADYEKHKVYACEVTHQGLSSPVTKSFNRGEC heavy 2: not shown | < 0.18 | 115 | 380 | 493 | 4.8 | 0.234 |
| HB1906 (bispecific antibody) light 1: DIQMTQTTSSLSASLGDRVTISCRASQDISKYLNWYQEKPDGTVKLLIYHTSRLHSGVPSRFSGSGSGTDYSLTISNLEQEDIATYFCQQGNTLPYTFGGGTKLEIKRTVAAPSVFIFPPSDEQLKSGTASVKCLLNNFYPREAKVQWKVDNALQSGNSQESVTEQDSKDSTYSLSSTLTLSKADYEKHKVYACEVTHQGLSSPVTKSFNRGEC heavy 1: EVKLQESGPGLVAPSQSLSVTCTVSGVSLPDYGVSWIRKPPRKGLEWLGVIWGSETTYYNSALKSRLTIIKDNSKSQVFLKMSSLQTDDTAIYYCAKHYYYGGSYAMDYWGQGTSVTVSSASTKGPSVFPLAPSSKSTSGGTAALGCLVKDYFPEPVTVSWNSGALTSGVHTFPAVLQSSGLYSLESVVTVPSSSLGTQTYICNVNHKPSNTKVDKKVEPKSCTDWSPYADQSIKVRISLKSALGDKAYEWNDNEMYLFRSSVAYAMRQYFLKVKNQMILFGEEDVRVANLKPRISFNFFVTAPKNVSDIIPRTEVEKAIRMSRSRINDAFRLNDNSLEFLGIQPTLGPPNQPPVSTSTSPTRSMAPGAVHLPQPVSTRDKTHTCPPCPAPELLGGPSVFLFPPKPKDTLMISRTPEVTCVVVDVSHEDPEVKFNWYVDGVEVHNAKTKPREEQYNSTYRVVSVLTVLHQDWLNGKEYKCKVSNKALPAPIEKTISKAKGQPREPQVCTLPPSRDELTKNQVSLSCAVKGFYPSDIAVEWESNGQPENNYKTTPPVLDSDGSFFLVSKLTVDKSRWQQGNVFSCSVMHEALHNRFTQKSLSLSPG light 2: QVQLQQPGAELVKPGASVKMSCKASGYTFTSYNMHWVKETPGRGLEWIGAIYPGNGDTSYNQKFKGKATLTADKSSSTAYMQLSSLTSEDSAVYYCARSTYYGGDWYFNVWGAGTLVTVSSASVAAPSVFIFPPSDEQLKSGTASVECLLNNFYPREAKVQWKVDNALQSGNSQESVTEQDSKDSTYSLSSTLTLSKADYEKHKVYACEVTHQGLSSPVTKSFNRGEC heavy 2: not shown | 0.423 | 115 | 329 | 488 | 3.8 | 0.259 |
